Data taken from PMC3181223.

Columns and labels:
P68135 = assay: depolymerisation of single filaments in a microfluidic flow (fluorescence microscopy); filaments grown from MgATP-actin, depolymerised in F-buffer (pH 7.8, 100 mM KCl, 1 mM MgCl2); velocities from an exponential fit of 1/vdepol against the age of F-actin, and from a direct fit of length …; conditions: other: depolymerisation of single filaments in a microfluidic flow (fluorescence microscopy)
[1] = molecular target: Actin purified from rabbit muscle (rabbit) (UniProt P68135); assay: depolymerisation of single filaments in a microfluidic flow (fluorescence microscopy); filaments grown from MgATP-actin, depolymerised in F-buffer (pH 7.8, 100 mM KCl, 1 mM MgCl2); velocities from an exponential fit of 1/vdepol against the age of F-actin, and from a direct fit of length against time; room temperature
[2] = molecular target: Actin purified from rabbit muscle (rabbit) (UniProt P68135); assay: depolymerisation of single filaments in a microfluidic flow (fluorescence microscopy); CrATP-actin filaments (as ADP-Pi-actin) depolymerising at different profilin concentrations; saturation curve of the off-rate fitted assuming profilin in rapid equilibrium with the barbed end; room temperature
[3] = molecular target: Actin purified from rabbit muscle (rabbit) (UniProt P68135); assay: depolymerisation of single filaments in a microfluidic flow (fluorescence microscopy); MgADP-actin filaments depolymerising at different profilin concentrations; saturation curve of the off-rate fitted assuming profilin in rapid equilibrium with the barbed end; room temperature

In the case of Actin purified from rabbit muscle, the “global depolymerization velocity of ADP-Pi-actin subunits at the barbed end (direct fit of length against time)” value (P68135) is reported as 1.5 subunits/s and the “global depolymerization velocity of ADP-Pi-actin subunits at the barbed end (dissociation as ADP-Pi-actin, or Pi release and then dissociation; exponential fit)” value (P68135) is reported as 1.5±0.4 subunits/s.
“Actin purified from rabbit muscle (from UniProt P68135 1-377) (natural protein)” gave a depolymerization velocity of ADP-actin subunits at the barbed end (direct fit of length against time) [1] of 6 subunits/s and a depolymerization velocity of ADP-actin subunits at the barbed end (exponential fit) [1] of 6.2 subunits/s.
With “profilin-actin (from UniProt P62962 1-140; P68135 1-377) (complex)” the koff [2] was 4.7 s⁻¹ and the koff [3] was 51.6 s⁻¹.
